In patent publication US20220265759A1, “COMPOSITION AND METHOD FOR PROMOTING WOUND HEALING” (THE BOARD OF TRUSTEES OF THE UNIVERSITY OF ILLIOIS, priority 2019, published 2022):

Key:
[1] = molecular target: T1, CCR10-eNOS interaction (Homo sapiens, UniProt P46092); assay: Ligand-induced CCR10-eNOS interaction in HUVEC (Co-IP, confocal co-localization); type: cell-based; details: plasma membrane ROI, stimulation for 5 minutes; untreated control cells 43%
T1 construct: host or cells: HUVEC (primary human umbilical vein endothelial cells)
T1 sequence (P46092 1-362): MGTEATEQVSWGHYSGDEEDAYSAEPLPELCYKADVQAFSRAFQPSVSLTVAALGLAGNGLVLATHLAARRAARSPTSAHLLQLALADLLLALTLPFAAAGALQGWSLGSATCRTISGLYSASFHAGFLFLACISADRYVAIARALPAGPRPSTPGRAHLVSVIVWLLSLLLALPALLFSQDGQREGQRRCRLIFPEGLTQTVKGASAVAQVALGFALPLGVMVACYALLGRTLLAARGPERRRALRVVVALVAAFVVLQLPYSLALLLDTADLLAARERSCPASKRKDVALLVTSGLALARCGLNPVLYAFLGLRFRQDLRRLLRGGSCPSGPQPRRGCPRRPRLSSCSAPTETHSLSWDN
Protocol: (§1) Co-IP Experiments, cells or mouse wounds were collected after treatment, and lysed in 2% ODG in Tris buffer. The homogenates were further prepared for Co-IP experiments as described in the art (Chen, et al. (2018) Mol. Biol. Cell 29(10):1190-1202; Chen, et al. (2020) FASEB J. 34(4):5838-5850; Chen, et al. (2015) Ann. Rheum. Dis. 74:1898-1906).
Confocal Microscopy. For cellular immunostaining, confluent monolayers of cells grown on coverslips were prepared as described previously (Chen, et al. (2012) Mel. Biol. Cell 23(7):1388-1398). Fluorescent images were obtained using a Zeiss LSM 880 confocal microscope. The co-localization coefficient in specified regions of interest (ROI) were determined using Zeiss Zen software. Briefly, using the Overlay tool, the desired ROI was drawn along the cell edge and the values for the ROIs tabulated. […] The data from different treatment groups were collected and analyzed for statistical significance as described previously (Chen, et al. (2020) FASEB J. 34(4):5838-5850).
To investigate whether CCR10 interacts directly with eNOS, primary culture HUVEC were collected and prepared for co-immunoprecipitation (Co-IP) to assess CCR10-eNOS interaction following stimulation with 5 μM A23187. […] Co-localization coefficient in the regions of interest (ROI) in the plasma membrane were quantified from Zeiss LSM 880 confocal microscope images using Zeiss Zen software.

[2] = test system: HUVECs; assay: NO production in HUVECs; type: cell-based, human; details: 500 ng/ml
Protocol: Nitric Oxide (NO) Measurement with DAF-FM Diacetate. Confluent HUVEC monolayers on 96-well plates were loaded with 2.5 μM DAF-FM and incubated for 45 minutes at 37° C. NO concentration was measured using a SpectraMax Microplate Reader (Molecular Devices, San Jose, Calif.) as described in the art (Chen, et al. (2020) FASEB J. 34(4):5838-5850).
(§2) NO production was also observed in HUVECs following treatment with 500 ng/ml human recombinant CCL28, the ligand for CCR10. The signaling pathways activated by CCL28 binding to CCR10 in endothelial cells were further investigated.

[3] = test system: eNOS and CCR10 interaction with LAMP1; assay: eNOS internalization and degradation in HDMVECs stimulated with CCL28 (Co-IP with LAMP1, confocal microscopy); type: cell-based, human; details: HDMVECs
Protocol: as §1
Confocal Microscopy. For cellular immunostaining, confluent monolayers of cells grown on coverslips were prepared as described previously (Chen, et al. (2012) Mel. Biol. Cell 23(7):1388-1398). Fluorescent images were obtained using a Zeiss LSM 880 confocal microscope. The co-localization coefficient in specified regions of interest (ROI) were determined using Zeiss Zen software. Briefly, using the Overlay tool, the desired ROI was drawn along the cell edge and the values for the ROIs tabulated. The scatterplot and table were automatically adjusted to the pixel distribution for the selected ROI. The data from different treatment groups were collected and analyzed for statistical significance as described previously (Chen, et al. (2020) FASEB J. 34(4):5838-5850). […]
Since myristoylated 7 amino acid CCR10-binding domain (Myr-CBD7) peptide can block eNOS interaction with CCR10 and increase eNOS activity in HUVECs, it was assessed whether Myr-CBD7 can prevent eNOS internalization and degradation in HDMVECs following CCL28 stimulation. […]

[4] = molecular target: T2, eNOS-CCR10 interaction (Homo sapiens, UniProt P46092); assay: CCL28-induced eNOS-CCR10 interaction in HDMVECs; type: cell-based; details: 500 ng/ml
T2 construct: host or cells: HDMVEC (human dermal microvascular endothelial cells)
T2 sequence (P46092 1-362): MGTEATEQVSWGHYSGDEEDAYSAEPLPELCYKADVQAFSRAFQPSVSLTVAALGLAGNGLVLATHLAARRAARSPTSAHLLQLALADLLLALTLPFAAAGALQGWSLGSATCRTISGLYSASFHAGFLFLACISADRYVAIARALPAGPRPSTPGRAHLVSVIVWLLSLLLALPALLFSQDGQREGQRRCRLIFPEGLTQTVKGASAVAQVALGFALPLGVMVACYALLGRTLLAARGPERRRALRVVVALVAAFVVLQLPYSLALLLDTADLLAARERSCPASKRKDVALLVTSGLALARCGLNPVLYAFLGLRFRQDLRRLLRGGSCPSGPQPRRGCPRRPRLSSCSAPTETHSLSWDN
T2 sequence (P29474 2-1203 partner limits assumed): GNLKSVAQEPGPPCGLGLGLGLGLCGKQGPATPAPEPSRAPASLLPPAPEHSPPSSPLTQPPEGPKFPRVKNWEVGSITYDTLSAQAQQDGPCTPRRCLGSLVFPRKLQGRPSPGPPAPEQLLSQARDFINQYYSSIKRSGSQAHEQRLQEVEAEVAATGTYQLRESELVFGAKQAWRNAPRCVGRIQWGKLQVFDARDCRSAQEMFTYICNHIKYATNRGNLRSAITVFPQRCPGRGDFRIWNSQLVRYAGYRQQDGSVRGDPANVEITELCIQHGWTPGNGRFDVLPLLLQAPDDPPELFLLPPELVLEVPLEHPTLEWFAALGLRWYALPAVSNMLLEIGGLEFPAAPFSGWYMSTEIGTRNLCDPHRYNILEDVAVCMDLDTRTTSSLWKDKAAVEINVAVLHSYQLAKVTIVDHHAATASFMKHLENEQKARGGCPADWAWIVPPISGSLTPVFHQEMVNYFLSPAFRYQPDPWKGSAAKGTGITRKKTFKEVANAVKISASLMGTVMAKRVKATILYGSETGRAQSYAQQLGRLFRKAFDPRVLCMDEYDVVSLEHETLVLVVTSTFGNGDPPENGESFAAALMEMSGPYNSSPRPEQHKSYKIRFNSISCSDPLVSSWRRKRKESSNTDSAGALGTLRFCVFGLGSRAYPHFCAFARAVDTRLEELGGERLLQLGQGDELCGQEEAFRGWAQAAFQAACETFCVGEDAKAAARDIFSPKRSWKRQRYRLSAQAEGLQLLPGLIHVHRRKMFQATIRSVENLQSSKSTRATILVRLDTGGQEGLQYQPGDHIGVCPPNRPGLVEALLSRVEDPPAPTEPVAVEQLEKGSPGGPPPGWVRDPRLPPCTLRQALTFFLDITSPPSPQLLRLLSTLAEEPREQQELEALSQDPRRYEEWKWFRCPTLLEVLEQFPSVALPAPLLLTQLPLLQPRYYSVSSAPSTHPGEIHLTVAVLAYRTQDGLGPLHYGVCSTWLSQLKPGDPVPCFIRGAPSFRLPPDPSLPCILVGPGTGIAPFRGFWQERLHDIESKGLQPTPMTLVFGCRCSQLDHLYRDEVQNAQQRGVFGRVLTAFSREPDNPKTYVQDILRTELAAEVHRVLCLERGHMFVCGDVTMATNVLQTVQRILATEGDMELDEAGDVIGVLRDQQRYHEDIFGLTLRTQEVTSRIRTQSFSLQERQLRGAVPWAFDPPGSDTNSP
Text: as §1
It has been shown that CCR10 is highly expressed in human umbilical vein endothelial cells (HUVECs) and human endothelial progenitor cells (EPCs) (Chen, et al. (2020) FASEB J. 34(4):5838-5850). In order to understand whether the CCL28/CCR10 signaling axis in dermal microvessels plays a role in wound healing, 500 ng/ml CCL28 was administrated to human dermal microvascular endothelial cells (HDMVECs). eNOS-CCR10 interaction increased with maximum binding observed at 5 minutes, similar to that observed in HUVEC (Chen, et al. (2020) FASEB J. 34(4):5838-5850). […] Upon stimulation with CCL28 for 5 minutes, CCR10 co-localized to a greater extent with eNOS on the plasma membrane.

[5] = test system: eNOS, p85 (PI3K), Src kinase, ERK (MAPK), β-catenin, Bcl-2; assay: Immunoblot of CCL28 signaling in endothelial cells; type: cell-based, human
Protocol: Immunoblot and Co-Immunoprecipitation (Co-IP). After serum starvation, inhibitors were added 45 minutes prior to stimulation for indicated times at 37° C., and cells were then collected and lysed for western blot analysis. After probing for p-eNOS (Ser1177), p-p85 (Tyr458), p-Src (Tyr 416), and p-ERK (T202/Y204), the same blots were stripped and re-probed for total proteins mentioned above. For detection of CCL28-induced protein levels of β-catenin and Bcl-2, near-confluent endothelial cells were incubated with 500 ng/ml CCL28 for 24 hours in EGM-2 medium containing 1% FBS.
as §2
The role of CCL28/CCR10 signaling pathways was further investigated in angiogenesis. Pretreatment of cells with 10 μM wortmannin (PI3K inhibitor), 5 μM U0126 (MAPK/ERK inhibitor), 1 mM L-NAME (eNOS inhibitor), 10 μM PP2 (Src kinase inhibitor), and 10 μM STO-609 ([…]) reduced endothelial cell tube formation induced by 500 ng/ml CCL28. […]

Co-localization coefficient of CCR10 and eNOS [1]: 78%
eNOS-CCR10 interaction [4]: increased
time of maximum eNOS-CCR10 binding [4]: 5 min
B1: CCL28: human recombinant CCL28, the ligand for CCR10 (protein)
chain: ILPIASSCCTEVSHHISRRLLERVNMCRIQRADGDCDLAAVILHVKRRRICVSPHNHTVKQWMKVQAAKKNGKGNVCHRKKHHGKRNSNRAHQGKHETYGHKTPY
NO production [2]: observed
eNOS co-localization with EEA1 ([3]; 500 ng/ml for 90 minutes, preliminary analyses): more co-localization
eNOS and CCR10 association with LAMP1 (co-IP) ([3]; 3 hours treatment): associated with LAMP1
expression levels of β-catenin and Bcl-2 ([5]; stimulation of endothelial cells for 24 hours): enhanced
Phosphorylation of eNOS (Ser1177), p85 (Tyr458; PI3K), Src kinase (Tyr418), and ERK (T202/Y204; MAPK) ([5]; treatment for up to 60 minutes): significantly increased
